In test [1] the target is soluble CD8αα (human) (UniProt P01732). Briefly: method not given.
For test [2] the target is unchanged. Kind of test: surface plasmon resonance with sCD8αα wt; mean KD (n=3) printed over the bar, error bar drawn; sheet caption 'HLA A*0201 [..] tetramers'. A general note: Surface plasmon resonance follows binding to a sensor surface in real time, without labels.
The target is the same in test [3]. Briefly: surface plasmon resonance, biotinylated pMHCI monomer.
Test [4] shares this target. Kind of test: surface plasmon resonance.

Among the data in patent US20070031442A1 are Kd values, retold here.

Bounds are passed on as bounds.

What is called Kd is the free concentration of one partner at which half of the binding sites on the other are occupied at equilibrium, for simple one-to-one binding. Low values mean tighter binding, high ones weaker binding. As for “wild type HLA A*0201 biotinylated pMHCI monomer (from UniProt P61769 21-119) (peptide-MHC)”, the Kd in test [1] came to 128 µM; in test [2], 128 µM; in test [3], 135 µM.

For the substance “wild type HLA A*68011 biotinylated pMHCI (from UniProt P61769 21-119) (peptide-MHC)”, in test [4], the Kd was 980 µM.

As to “245A substituted HLA A*68011 biotinylated pMHCI (from UniProt P61769 21-119) (peptide-MHC)”, the Kd in test [4] stood at 102 µM.

“A2Kb chimeric class I pMHCI (HLA A2 with the α3 domain of murine H-2K^b) (from UniProt P61769 21-119) (peptide-MHC)” showed a Kd in test [1] of less than 5 µM.
